Data as given in patent US20220213467A1 (YEDA RESEARCH AND DEVELOPMENT, published 2022).

Key:
[1] = target: T1, pre-wedge, gp10-7-8 complex (bacteriophage T4) (bacteriophage T4, UniProt P10928 1-602; P19061 1-1032; P19062 1-334); test: on-chip gene titration, yield calculated from post-staining
T1 construct: also called pre-wedges

[2] = target: T2, gp10-7 complex (bacteriophage T4) (bacteriophage T4, UniProt P10928 1-602; P19061 1-1032); test: on-chip assemblograms in 1D compartments, post-staining
T2 construct: also called gp10-7 complexes

[3] = target: T3, gp7, bacteriophage T4 gene product 7 (bacteriophage T4, UniProt P19061 1-1032); test: on-chip assemblograms in 1D compartments on gp11-HA, post-staining with gp8
T3 construct: Expressed cell-free; also called gene-7 product
T3 sequence: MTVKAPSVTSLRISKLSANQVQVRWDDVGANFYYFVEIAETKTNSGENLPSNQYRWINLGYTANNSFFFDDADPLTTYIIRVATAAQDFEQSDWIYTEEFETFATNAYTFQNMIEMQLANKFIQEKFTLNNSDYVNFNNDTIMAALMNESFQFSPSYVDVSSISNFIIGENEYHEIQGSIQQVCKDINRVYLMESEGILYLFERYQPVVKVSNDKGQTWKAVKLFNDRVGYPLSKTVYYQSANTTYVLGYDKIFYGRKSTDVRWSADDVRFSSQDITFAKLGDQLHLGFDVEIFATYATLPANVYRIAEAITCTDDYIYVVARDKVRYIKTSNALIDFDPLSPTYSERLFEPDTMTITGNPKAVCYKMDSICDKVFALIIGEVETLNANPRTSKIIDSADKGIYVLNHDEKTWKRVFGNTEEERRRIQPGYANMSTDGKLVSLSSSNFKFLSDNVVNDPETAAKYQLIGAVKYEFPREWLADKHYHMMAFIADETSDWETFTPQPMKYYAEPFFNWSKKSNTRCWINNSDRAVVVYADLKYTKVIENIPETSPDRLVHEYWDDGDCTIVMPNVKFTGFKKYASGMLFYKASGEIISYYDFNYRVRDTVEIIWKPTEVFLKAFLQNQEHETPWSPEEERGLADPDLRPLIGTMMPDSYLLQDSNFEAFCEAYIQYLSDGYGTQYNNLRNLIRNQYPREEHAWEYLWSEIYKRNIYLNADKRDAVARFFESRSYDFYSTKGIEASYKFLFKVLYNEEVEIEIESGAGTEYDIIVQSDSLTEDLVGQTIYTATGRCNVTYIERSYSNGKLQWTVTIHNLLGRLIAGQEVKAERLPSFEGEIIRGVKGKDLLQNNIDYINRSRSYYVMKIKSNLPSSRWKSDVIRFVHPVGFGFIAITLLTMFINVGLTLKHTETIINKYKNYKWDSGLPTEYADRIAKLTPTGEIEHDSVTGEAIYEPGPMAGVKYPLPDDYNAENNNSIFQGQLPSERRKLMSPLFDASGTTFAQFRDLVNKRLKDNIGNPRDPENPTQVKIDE

B1: gp6, bacteriophage T4 gene product 6 (other)
chain: MANTPVNYQLTRTANAIPEIFVGGTFAEIKQNLIEWLNGQNEFLDYDFEGSRLNVLCDLLAYNTLYIQQFGNAAVYESFMRTANLRSSVVQAAQDNGYLPTSKSAAQTEIMLTCTDALNRNYITIPRGTRFLAYAKDTSVNPYNFVSREDVIAIRDKNNQYFPRLKLAQGRIVRTEIIYDKLTPIIIYDKNIDRNQVKLYVDGAEWINWTRKSMVHAGSTSTIYYMRETIDGNTEFYFGEGEISVNASEGALTANYIGGLKPTQNSTIVIEYISTNGADANGAVGFSYADTLTNITVININENPNDDPDFVGADGGGDPEDIERIRELGTIKRETQQRCVTATDYDTFVSERFGSIIQAVQTFTDSTKPGYAFIAAKPKSGLYLTTVQREDIKNYLKDYNLAPITPSIISPNYLFIKTNLKVTYALNKLQESEQWLEGQIIDKIDRYYTEDVEIFNSSFAKSKMLTYVDDADHSVIGSSATIQMVREVQNFYKTPEAGIKYNNQIKDRSMESNTFSFNSGRKVVNPDTGLEEDVLYDVRIVSTDRDSKGIGKVIIGPFASGDVTENENIQPYTGNDFNKLANSDGRDKYYVIGEINYPADVIYWNIAKINLTSEKFEVQTIELYSDPTDDVIFTRDGSLIVFENDLRPQYLTIDLEPISQ
notes: Expressed cell-free; also called gene-6 product
binding result [1]: binds

B2: gp8, bacteriophage T4 gene product 8 (other)
chain: MNDSSVIYRAIVTSKFRTEKMLNFYNSIGSGPDKNTIFITFGRSEPWSSNENEVGFAPPYPTDSVLGVTDMWTHMMGTVKVLPSMLDAVIPRRDWGDTRYPDPYTFRINDIVVCNSAPYNATESGAGWLVYRCLDVPDTGMCSIASLTDKDECLKLGGKWTPSARSMTPPEGRGDAEGTIEPGDGYVWEYLFEIPPDVSINRCTNEYIVVPWPEELKEDPTRWGYEDNLTWQQDDFGLIYRVKANTIRFKAYLDSVYFPEAALPGNKGFRQISIITNPLEAKAHPNDPNVKAEKDYYDPEDLMRHSGEMIYMENRPPIIMAMDQTEEINILFTF
notes: Expressed cell-free; also called gene-8 product
binding result [2]: binds

B3: gp10, bacteriophage T4 gene product 10 (other)
chain: MKQNINIGNVVDDGTGDYLRKGGIKINENFDELYYELGDGDVPYSAGAWKTYNASSGQTLTAEWGKSYAINTSSGRVTINLPKGTVNDYNKVIRARDVFATWNVNPVTLVAASGDTIKGSAVPVEINVRFSDLELVYCAPGRWEYVKNKQIDKITSSDISNVARKEFLVEVQGQTDFLDVFRGTSYNVNNIRVKHRGNELYYGDVFSENSDFGSPGENEGELVPLDGFNIRLRQPCNIGDTVQIETFMDGVSQWRSSYTRRQIRLLDSKLTSKTSLEGSIYVTDLSTMKSIPFSAFGLIPGEPINPNSLEVRFNGILQELAGTVGMPLFHCVGADSDDEVECSVLGGTWEQSHTDYSVETDENGIPEILHFDSVFEHGDIINITWFNNDLGTLLTKDEIIDETDNLYVSQGPGVDISGDVNLTDFDKIGWPNVEAVQSYQRAFNAVSNIFDTIYPIGTIYENAVNPNNPVTYMGFGSWKLFGQGKVLVGWNEDISDPNFALNNNDLDSGGNPSHTAGGTGGSTSVTLENANLPATETDEEVLIVDENGSVIVGGCQYDPDESGPIYTKYREAKASTNSTHTPPTSITNIQPYITVYRWIRIA
notes: also called gene-10 product
binding result [3]: binds
